We go through 22 molecules from article PMC10325916, “DNA strand asymmetry generated by CpG hemimethylation has opposing effects on CTCF binding”.

Sequences and labels used below:
T1: CTCF ZF1-11 (human, UniProt P49711 266-577)
T1 sequence: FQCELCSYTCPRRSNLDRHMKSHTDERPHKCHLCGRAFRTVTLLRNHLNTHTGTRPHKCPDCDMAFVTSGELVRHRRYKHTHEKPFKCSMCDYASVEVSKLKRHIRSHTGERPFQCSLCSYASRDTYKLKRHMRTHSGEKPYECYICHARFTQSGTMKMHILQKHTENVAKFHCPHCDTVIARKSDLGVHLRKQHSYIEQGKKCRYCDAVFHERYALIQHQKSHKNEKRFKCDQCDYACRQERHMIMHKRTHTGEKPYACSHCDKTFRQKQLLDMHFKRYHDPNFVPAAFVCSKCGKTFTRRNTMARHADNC

T2: CTCF FL (human, UniProt P49711 1-727)
T2 sequence: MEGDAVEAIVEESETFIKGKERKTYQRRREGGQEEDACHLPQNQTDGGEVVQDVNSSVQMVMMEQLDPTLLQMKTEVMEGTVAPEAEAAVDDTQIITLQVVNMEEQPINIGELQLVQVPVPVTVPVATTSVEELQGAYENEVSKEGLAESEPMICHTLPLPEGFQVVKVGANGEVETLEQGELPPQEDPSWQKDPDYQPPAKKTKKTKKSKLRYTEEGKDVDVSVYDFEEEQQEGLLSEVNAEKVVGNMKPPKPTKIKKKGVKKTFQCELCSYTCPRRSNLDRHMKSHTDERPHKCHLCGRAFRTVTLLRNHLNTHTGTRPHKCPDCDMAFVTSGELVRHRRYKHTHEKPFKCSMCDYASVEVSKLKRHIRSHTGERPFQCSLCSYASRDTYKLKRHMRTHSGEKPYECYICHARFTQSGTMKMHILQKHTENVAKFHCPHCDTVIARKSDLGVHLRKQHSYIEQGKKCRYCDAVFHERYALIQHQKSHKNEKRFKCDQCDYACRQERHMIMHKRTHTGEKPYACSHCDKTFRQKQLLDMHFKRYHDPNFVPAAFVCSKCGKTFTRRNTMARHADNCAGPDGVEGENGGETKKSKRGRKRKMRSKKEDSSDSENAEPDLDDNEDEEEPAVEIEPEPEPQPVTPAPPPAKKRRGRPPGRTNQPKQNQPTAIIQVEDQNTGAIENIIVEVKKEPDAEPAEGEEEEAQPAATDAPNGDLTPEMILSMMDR

B1: Negative control (dsDNA)
DNA 1: AAGACGATTCTGGATTGTA
DNA 2: TACAATCCAGAATCGTCTT
B2: Cen-CTCF motif C12 5mC (dsDNA)
DNA 1: AGGCCGCCAGAGAGCGCCC
DNA 2: GGGCGCTCTCTGGCGGCCT
modifications: 5mC motif strand C12
B3: Cen-CTCF opposite C2+C12 5mC (dsDNA)
DNA 1: AGGCCGCCAGAGAGCGCCC
DNA 2: GGGCGCTCTCTGGCGGCCT
modifications: 5mC opposite strand C2, C12
B4: H19 opposite C2 5mC (dsDNA)
DNA 1: GTTGCCGCGTGGTGGCAG
DNA 2: CTGCCACCACGCGGCAAC
modifications: 5mC opposite strand C2
B5: Cen-CTCF motif C2 + opposite C2 5mC (dsDNA)
DNA 1: AGGCCGCCAGAGAGCGCCC
DNA 2: GGGCGCTCTCTGGCGGCCT
modifications: 5mC motif C2 and opposite C2
B6: Cen-CTCF opposite C12 5mC (dsDNA)
DNA 1: AGGCCGCCAGAGAGCGCCC
DNA 2: GGGCGCTCTCTGGCGGCCT
modifications: 5mC opposite strand C12
B7: H19 unmethylated (dsDNA)
DNA 1: GTTGCCGCGTGGTGGCAG
DNA 2: CTGCCACCACGCGGCAAC
B8: Telo-CTCF (dsDNA)
DNA 1: TCCCCACCAGGGGGAGCAC
DNA 2: GTGCTCCCCCTGGTGGGGA
B9: Cen-CTCF opposite C2 5mC (dsDNA)
DNA 1: AGGCCGCCAGAGAGCGCCC
DNA 2: GGGCGCTCTCTGGCGGCCT
modifications: 5mC opposite strand C2
B10: Cen-CTCF motif C2+C12 5mC (dsDNA)
DNA 1: AGGCCGCCAGAGAGCGCCC
DNA 2: GGGCGCTCTCTGGCGGCCT
modifications: 5mC motif strand C2, C12
B11: H19 full methylation (dsDNA)
DNA 1: GTTGCCGCGTGGTGGCAG
DNA 2: CTGCCACCACGCGGCAAC
modifications: 5mC C2 both strands
B12: Cen-CTCF motif C2 + opposite C12 5mC (dsDNA)
DNA 1: AGGCCGCCAGAGAGCGCCC
DNA 2: GGGCGCTCTCTGGCGGCCT
modifications: 5mC motif C2 and opposite C12
B13: Cen-CTCF full methylation (dsDNA)
DNA 1: AGGCCGCCAGAGAGCGCCC
DNA 2: GGGCGCTCTCTGGCGGCCT
modifications: 5mC at C2 and C12 CpGs, both strands
B14: Cen-CTCF motif C12 + opposite C12 5mC (dsDNA)
DNA 1: AGGCCGCCAGAGAGCGCCC
DNA 2: GGGCGCTCTCTGGCGGCCT
modifications: 5mC motif C12 and opposite C12
B15: Cen-CTCF motif C12 + opposite C2 5mC (dsDNA)
DNA 1: AGGCCGCCAGAGAGCGCCC
DNA 2: GGGCGCTCTCTGGCGGCCT
modifications: 5mC motif C12 and opposite C2
B16: Cen-CTCF motif C2 5mC (dsDNA)
DNA 1: AGGCCGCCAGAGAGCGCCC
DNA 2: GGGCGCTCTCTGGCGGCCT
modifications: 5mC motif strand C2
B17: H19 motif C2 5mC (dsDNA)
DNA 1: GTTGCCGCGTGGTGGCAG
DNA 2: CTGCCACCACGCGGCAAC
modifications: 5mC motif strand C2
B18: Cen-CTCF unmethylated (dsDNA)
DNA 1: AGGCCGCCAGAGAGCGCCC
DNA 2: GGGCGCTCTCTGGCGGCCT
B19: Cen-CTCF full 5hmC (dsDNA)
DNA 1: AGGCCGCCAGAGAGCGCCC
DNA 2: GGGCGCTCTCTGGCGGCCT
modifications: 5hmC at CpGs, both strands
B20: Cen-CTCF motif strand 5hmC (dsDNA)
DNA 1: AGGCCGCCAGAGAGCGCCC
DNA 2: GGGCGCTCTCTGGCGGCCT
modifications: 5hmC motif strand
B21: H19 full 5hmC (dsDNA)
DNA 1: GTTGCCGCGTGGTGGCAG
DNA 2: CTGCCACCACGCGGCAAC
modifications: 5hmC C2 both strands
B22: H19 motif strand 5hmC (dsDNA)
DNA 1: GTTGCCGCGTGGTGGCAG
DNA 2: CTGCCACCACGCGGCAAC
modifications: 5hmC motif strand C2

Several values for one entry are separate records, joined by “and”; a condition that tells them apart may be missing. Equal entries are not always repeated.

The first series deals with T1, CTCF ZF1-11. Nature of the series: fluorescence polarization; 20 mM Tris-HCl pH 7.5, 300 mM NaCl, 5% glycerol, 0.5 mM TCEP, 25 C, 15 min, 5 nM FAM-oligo. Conditions: protein: recombinant; tags: 6xHis-SUMO, used tagged and untagged (no change in results); label: FAM.
What is called Kd is the constant that tells how readily two partners part at equilibrium. On to B1, for which the dissociation constant (Kd) is about 1000 nM.

The series is the same for the next values; noted with them: protein: recombinant; tags: 6xHis-SUMO, used tagged and untagged (no change in results); label: FAM on motif strand.
As for B2, the Kd was 428 ± 37 nM.
In the case of B3, the Kd is 37 ± 2 nM.
Take B4: the Kd was determined as 89 nM.
In the case of B5, the Kd turned out to be 799 ± 110 nM.
With B6, the equilibrium dissociation constant (Kd) is 77 ± 5 nM.
Turning to B7, the dissociation constant Kd was 149 nM and ~200 nM.
B8: the equilibrium dissociation constant (Kd) was about 5 nM.
B9: the Kd worked out at 81 ± 5 nM.
Regarding B10, the equilibrium dissociation constant (Kd) was found to be 1030 ± 114 nM.
Consider B11, for which the Kd stood at 294 nM.
In the case of B12, the dissociation constant Kd stood at 839 ± 74 nM.
In the case of B13, the dissociation constant (Kd) was determined as 1080 ± 217 nM.
For B14, the dissociation constant (Kd) was 303 ± 28 nM.
Still for that read-out and setting: then B15, with 243 ± 18 nM; and B16, with 949 ± 165 nM; and B17, with 346 nM.
With B18, the dissociation constant Kd was 163 nM and ~200 nM.

The target in the next series is T2, CTCF FL. Described as above. Conditions: protein: recombinant; tags: 6xHis-SUMO, used tagged or removed (untagged for FL); label: FAM on motif strand.
For the molecule B7, the Kd was about 200 nM.
In the case of B8, the dissociation constant Kd is about 5 nM.
Turning to B18, the dissociation constant Kd was about 200 nM.

A further series has as its target T1, CTCF ZF1-11. Described as above. Particulars: protein: recombinant; tags: 6xHis-SUMO, used tagged and untagged (no change in results); label: FAM on motif strand.
Regarding B19, the binding signal is about 4 fold lower affinity vs N2.
Still for that read-out and setting: then B20, with about 4 fold lower affinity vs N2.

A further series concerns the target T1, CTCF ZF1-11. The series is described as above. Conditions: protein: recombinant; tags: 6xHis-SUMO, used tagged and untagged (no change in results); label: FAM on motif strand. This is another data set of the same source.
Consider B21, for which the binding signal is about 2 fold lower affinity vs N3.
Turning to B22, the binding signal was about 2 fold lower affinity vs N3.
